{
  "source": "patent US12637662B2",
  "about": "“Cells, islets, and organoids that evade immune detection and autoimmunity, methods of production and use thereof” (SALK INSTITUTE FOR BIOLOGICAL STUDIES, priority 2018, dated 2026)",
  "molecules": {"B1": {"name": "WNT5a: recombinant human Wnt5a protein (protein, UniProt P41221 62-380, looked up)", "Protein Wnt-5a": "IIGAQPLCSQLAGLSQGQKKLCHLYQDHMQYIGEGAKTGIKECQYQFRHRRWNCSTVDNTSVFGRVMQIGSRETAFTYAVSAAGVVNAMSRACREGELSTCGCSRAARPKDLPRDWLWGGCGDNIDYGYRFAKEFVDARERERIHAKGSYESARILMNLHNNEAGRRTVYNLADVACKCHGVSGSCSLKTCWLQLADFRKVGDALKEKYDSAAAMRLNSRGKLVQVNSRFNSPTTQDLVYIDPSPDYCVRNESTGSLGTQGRLCNKTSEGMDGCELMCCGRGYDQFKTVQTERCHCKFHWCCYVKCKKCTEIVDQFVCK"}},
  "key": {"[1]": {"system": "ERRγ (ESRRG), mitochondrial and insulin gene expression", "experiment": "Quantitative RT-PCR gene expression in hiPSC-derived islet organoids/HILOs", "assay_type": "cell-based, human", "conditions": "hiPSC-derived islet organoids, MCS or HILOs", "experimental": "hiPSCs were cultured in matrigel-coated plates. Single cell suspensions were prepared using Accutase, washed in PBS, and collected by centrifugation (1000-1300 rpm for 5 min). Cells were re-suspended with 3D Kelco Gel Stem TeSR™ Base Medium in the presence of the ROCK inhibitor (10 μM Y-27632, StemCell) for 5 to 7 days until spheroids reached 50-100 μm diameter. The medium was then replaced with 0.015% Kelco gel containing 0.3% methylcellulose and supplemented with 100 ng/ml human Activin A (R&D Systems), 3 μM CHIR99021 (Axon or Selleckchem) in differentiation medium (S1) for 1 day, and then 100 ng/ml human Activin in differentiation medium (S1) for another 2 days (Stage 1, Definitive Endoderm). Subsequently, the medium was replaced with differentiation medium (S2) with 50 ng/ml FGF7 (R&D Systems) for 2 days, differentiation medium (S3) with 50 ng/ml FGF7, 0.25 μM SANT-1 (Sigma), 1 μM Retinoic Acid (Sigma), 100 nM LDN193189, 10 μM Alk5 inhibitor II and 200 nM of the ß-Amyloid Precursor Protein modulator TPB for 3 days, then 50 ng/ml FGF7, 0.25 μM SANT-1 (Sigma), 1 μM Retinoic Acid (Sigma), 100 nM LDN193189, 10 μM Alk5 inhibitor II and 100 nM of the ß-Amyloid Precursor Protein modulator TPB for 2 days. Subsequently the medium was replaced with differentiation medium (S4) with 0.25 μM SANT-1, 50 nM retinoic acid, 100 nM LDN193189, 10 μM Alk5 inhibitor II, 1 μM T3 for 3 days. Subsequently, the medium was replaced with differentiation medium (S5) with 100 nM LDN193189, 100 nM […] inhibitor XX (GSiXX, Millipore), 10 μM Alk5 inhibitor IL, 1 μM T3 for 7 days. Subsequently, the medium was replaced with differentiation media (S5) with 10 μM Trolox (Calbiochem), 2 μM R428 (Selleckchem), 1 mM N-acetyl cysteine, 10 μM Alk5 inhibitor II, 1 μM T3 for an additional 7 to 20 days. […]\nTotal RNA was extracted using TRIzol reagent (Invitrogen) and RNeasy KIT (Qiagen). […] Real time quantitative RT-PCR (qPCR) was performed using SYBR Green (Bio-Rad)."}, "[2]": {"system": "insulin-expressing cells of HILOs", "experiment": "Mitochondrial content (MitoTracker) and insulin-GFP by flow cytometry", "assay_type": "cell-based, human", "excerpt": "FIGS. 8A-8H provide images, graphs, a schematic and a diagram showing results related to WNT4 mediated insulin-GFP expression and WNT4-driven metabolic maturation. FIG. 8A presents representative images of mitochondrial content, indicated by MitoTracker (red) staining, in PBS and WNT4 treated HILOs (scale bar, 100 μm). FIG. 8B presents graphs of flow cytometry quantification of insulin expression (GFP) and mitochondrial content in HILOs treated with recombinant human WNT4 (rhWNT4), WNT5A (rhWNT5A), or conditioned medium (CM) from control or WNT5A overexpressing fibroblasts (n=3). Error bars represent SEM. *p<0.05. FIG. 8C presents a gene ontology of transcriptional changes induced by WNT4 treatment (100 ng/ml WNT4 from day26 to day33) in HILOs. […] Error bars represent SEM. *p<0.05. FIG. 8E presents a Venn diagram showing overlap between WNT4-induced increases in chromatin accessibility in GFP^+ cells and increases in HILO gene expression (upper panel), and gene ontology pathways enriched in the intersection gene set. […] For FIGS. 8G and 8H, postnatal islets (day P11-14) from WT and β cell specific ERRγKO mice were cultured with or without rhWNT4 (100 ng/ml) for >5 days."}},
  "data": [
    {"molecule": "B1", "values": [
      {"measurement": "expression of ERRγ (ESRRG) and mitochondrial genes", "setting": "[1]", "result": "induced"},
      {"measurement": "proportion of insulin expressing cells", "setting": "[2]; GFP sorting, HILOs with and without WNT treatment", "result": "not affected"},
      {"measurement": "mitochondrial content / number", "setting": "[2]; MitoTracker, HILOs / insulin-expressing cells", "result": "increased the mitochondrial content"}
    ]}
  ]
}
